Experimental data as given in patent US20140087995A1 (published 2014).
Numbered stars: 1 amine (or outer) side, 2 acyl side, 3 side chain; on linkers, the order of the positions; unused ones are H or OH. Bridge positions count the residues as written; N and C are the ends. Side chains are listed from the residue outwards. Ends that are not written are not given here. * marks the point of attachment. C20 diacid = O=C(O)CCCCCCCCCCCCCCCCCCC(=O)*; γGlu = O=C(O)[C@H](CCC(=O)[*:2])N[*:1]

Columns and labels:
[1] = target: T1, human amylin receptor (amylin 3(a) receptor: human calcitonin receptor plus RAMP-3) (human, UniProt P30988 25-474; O60896 24-148, limits assumed); test: cell-based or functional assay
T1 sequence (looked up) 1: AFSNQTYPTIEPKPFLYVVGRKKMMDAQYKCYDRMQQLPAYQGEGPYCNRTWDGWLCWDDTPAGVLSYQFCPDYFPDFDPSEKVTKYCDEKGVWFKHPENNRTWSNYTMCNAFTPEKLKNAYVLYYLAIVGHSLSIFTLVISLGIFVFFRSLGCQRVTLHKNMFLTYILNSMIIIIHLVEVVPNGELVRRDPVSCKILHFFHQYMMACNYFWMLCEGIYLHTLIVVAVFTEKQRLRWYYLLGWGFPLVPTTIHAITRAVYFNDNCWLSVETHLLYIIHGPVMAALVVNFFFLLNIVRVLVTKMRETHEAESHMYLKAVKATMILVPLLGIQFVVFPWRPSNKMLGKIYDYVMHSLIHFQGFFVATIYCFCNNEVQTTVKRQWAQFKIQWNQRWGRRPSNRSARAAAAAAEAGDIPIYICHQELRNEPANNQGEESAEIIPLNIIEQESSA
T1 sequence (looked up) 2: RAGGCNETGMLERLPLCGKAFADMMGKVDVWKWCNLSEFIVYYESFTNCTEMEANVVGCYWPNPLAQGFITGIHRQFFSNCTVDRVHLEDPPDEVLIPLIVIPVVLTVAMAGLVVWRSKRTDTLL

[2] = target: T2, human calcitonin receptor (human, UniProt P30988 25-474); test: cell-based or functional assay
T2 sequence (looked up): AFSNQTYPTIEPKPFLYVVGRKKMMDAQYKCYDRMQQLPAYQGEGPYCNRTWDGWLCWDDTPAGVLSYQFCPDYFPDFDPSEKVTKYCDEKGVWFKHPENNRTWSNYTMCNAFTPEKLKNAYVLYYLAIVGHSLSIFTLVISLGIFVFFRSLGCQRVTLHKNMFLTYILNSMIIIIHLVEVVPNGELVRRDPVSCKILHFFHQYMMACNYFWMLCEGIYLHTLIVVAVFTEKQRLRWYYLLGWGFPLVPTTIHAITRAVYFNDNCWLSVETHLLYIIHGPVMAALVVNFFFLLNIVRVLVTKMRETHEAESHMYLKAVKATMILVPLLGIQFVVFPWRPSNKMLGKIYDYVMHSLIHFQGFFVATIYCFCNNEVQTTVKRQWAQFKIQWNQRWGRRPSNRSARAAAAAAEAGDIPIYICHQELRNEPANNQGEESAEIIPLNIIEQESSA

[3] = target: T1, human amylin receptor (amylin 3(a) …); test: SPA competition binding, membranes of Amylin 3(a)/CRE-luc BHK cells, displacement of 125I-rat amylin (Assay V)
Procedure: The binding assay was performed using scintillation proximity assay (SPA) beads (RPNQ0001) from PerkinElmer and cell membranes from the Amylin 3(a)/CRE-luc cells (as described in Assay (II)) were used. Membranes were prepared in the following way; the cells were rinsed with PBS and incubated with Versene for approximately 5 min before harvesting. The cells were flushed with PBS and the cell-suspension was centrifuged for 5 min at 1000 rpm. Cells were homogenized (ultrathurrax) in a buffer containing 20 mM Na-HEPES and 10 mM EDTA (pH 7.4) and centrifuged at 20.000 rpm for 15 min. The resulting pellet was resuspended, homogenized and centrifuged (20.000 rpm, 15 min) in a buffer containing 20 mM Na-HEPES and 0.1 mM EDTA (pH 7.4, buffer 2). The resulting pellet was resuspended in buffer 2 and protein concentration was measured (BCA protein Assay, Pierce). The homogenate was kept cold during the whole procedure. The membranes were kept at −80° C. until use. The assay was performed in a 384 well Optiplate (PerkinElmer) in a total volume of 40 ul. Membranes were mixed with SPA beads. Final concentration of membranes 35 ng/μL final and SPA beads was 0.05 mg/well. Test-compounds were dissolved in DMSO and further diluted in assay buffer (50 mM Hepes, pH 7.4, 1 mM CaCl2, 5 mM MgCl₂, 0.1% OA and 0.02% Tween20). […] The final mixture was incubated with shaking at 400 rpm for 120 min at 25° C. prior to centrifugation (1500 rpm, 10 min). Samples were analyzed on TopCounter™ (Packard). The IC₅₀ was calculated using (one site binding competition analysis) GraphPad Prism5 as a measure of receptor affinity.

Binder | hAmylin-R funct. EC50 [1] | Ratio hCT/hAmylin funct. (hCTR EC50 against hAmylin-R EC50) [2] | hCTR funct. EC50 [2] | IC50 [3]
{C20 diacid-γGlu}-KCNTATCATQRLAEFLRHSSPNFGAIPSSTNVGPNTY-NH2 (disulfide 2-7; SMILES CC[C@H](C)[C@H](NC(=O)[C@H](C)NC(=O)CNC(=O)[C@H](Cc1ccccc1)NC(=O)[C@H](CC(N)=O)NC(=O)[C@@H]1CCCN1C(=O)[C@H](CO)NC(=O)[C@H](CO)NC(=O)[C@H](Cc1c[nH]cn1)NC(=O)[C@H](CCCNC(=N)N)NC(=O)[C@H](CC(C)C)NC(=O)[C@H](Cc1ccccc1)NC(=O)[C@H](CCC(=O)O)NC(=O)[C@H](C)NC(=O)[C@H](CC(C)C)NC(=O)[C@H](CCCNC(=N)N)NC(=O)[C@H](CCC(N)=O)NC(=O)[C@@H](NC(=O)[C@H](C)NC(=O)[C@@H]1CSSC[C@H](NC(=O)[C@H](CCCCN)NC(=O)CC[C@H](NC(=O)CCCCCCCCCCCCCCCCCCC(=O)O)C(=O)O)C(=O)N[C@@H](CC(N)=O)C(=O)N[C@@H]([C@@H](C)O)C(=O)N[C@@H](C)C(=O)N[C@@H]([C@@H](C)O)C(=O)N1)[C@@H](C)O)C(=O)N1CCC[C@H]1C(=O)N[C@@H](CO)C(=O)N[C@@H](CO)C(=O)N[C@H](C(=O)N[C@@H](CC(N)=O)C(=O)N[C@H](C(=O)NCC(=O)N1CCC[C@H]1C(=O)N[C@@H](CC(N)=O)C(=O)N[C@H](C(=O)N[C@@H](Cc1ccc(O)cc1)C(N)=O)[C@@H](C)O)C(C)C)[C@@H](C)O, also called compound 32) | 0.05 nM | 6.6 | 0.327 nM | 0.1 nM
{C20 diacid-γGlu}-KCNTATCATQRLAEFLRHSSPNFGAIPSSTNVGSETY-NH2 (disulfide 2-7; SMILES CC[C@H](C)[C@H](NC(=O)[C@H](C)NC(=O)CNC(=O)[C@H](Cc1ccccc1)NC(=O)[C@H](CC(N)=O)NC(=O)[C@@H]1CCCN1C(=O)[C@H](CO)NC(=O)[C@H](CO)NC(=O)[C@H](Cc1c[nH]cn1)NC(=O)[C@H](CCCNC(=N)N)NC(=O)[C@H](CC(C)C)NC(=O)[C@H](Cc1ccccc1)NC(=O)[C@H](CCC(=O)O)NC(=O)[C@H](C)NC(=O)[C@H](CC(C)C)NC(=O)[C@H](CCCNC(=N)N)NC(=O)[C@H](CCC(N)=O)NC(=O)[C@@H](NC(=O)[C@H](C)NC(=O)[C@@H]1CSSC[C@H](NC(=O)[C@H](CCCCN)NC(=O)CC[C@H](NC(=O)CCCCCCCCCCCCCCCCCCC(=O)O)C(=O)O)C(=O)N[C@@H](CC(N)=O)C(=O)N[C@@H]([C@@H](C)O)C(=O)N[C@@H](C)C(=O)N[C@@H]([C@@H](C)O)C(=O)N1)[C@@H](C)O)C(=O)N1CCC[C@H]1C(=O)N[C@@H](CO)C(=O)N[C@@H](CO)C(=O)N[C@H](C(=O)N[C@@H](CC(N)=O)C(=O)N[C@H](C(=O)NCC(=O)N[C@@H](CO)C(=O)N[C@@H](CCC(=O)O)C(=O)N[C@H](C(=O)N[C@@H](Cc1ccc(O)cc1)C(N)=O)[C@@H](C)O)C(C)C)[C@@H](C)O, also called compound 22) | 0.27 nM | 3.8 | 1.03 nM | 0.794 nM
{C20 diacid-γGlu}-KCNTATCATQRLAEFLRHSSPNFGAIPSSTNVGSNTP-NH2 (disulfide 2-7; SMILES CC[C@H](C)[C@H](NC(=O)[C@H](C)NC(=O)CNC(=O)[C@H](Cc1ccccc1)NC(=O)[C@H](CC(N)=O)NC(=O)[C@@H]1CCCN1C(=O)[C@H](CO)NC(=O)[C@H](CO)NC(=O)[C@H](Cc1c[nH]cn1)NC(=O)[C@H](CCCNC(=N)N)NC(=O)[C@H](CC(C)C)NC(=O)[C@H](Cc1ccccc1)NC(=O)[C@H](CCC(=O)O)NC(=O)[C@H](C)NC(=O)[C@H](CC(C)C)NC(=O)[C@H](CCCNC(=N)N)NC(=O)[C@H](CCC(N)=O)NC(=O)[C@@H](NC(=O)[C@H](C)NC(=O)[C@@H]1CSSC[C@H](NC(=O)[C@H](CCCCN)NC(=O)CC[C@H](NC(=O)CCCCCCCCCCCCCCCCCCC(=O)O)C(=O)O)C(=O)N[C@@H](CC(N)=O)C(=O)N[C@@H]([C@@H](C)O)C(=O)N[C@@H](C)C(=O)N[C@@H]([C@@H](C)O)C(=O)N1)[C@@H](C)O)C(=O)N1CCC[C@H]1C(=O)N[C@@H](CO)C(=O)N[C@@H](CO)C(=O)N[C@H](C(=O)N[C@@H](CC(N)=O)C(=O)N[C@H](C(=O)NCC(=O)N[C@@H](CO)C(=O)N[C@@H](CC(N)=O)C(=O)N[C@H](C(=O)N1CCC[C@H]1C(N)=O)[C@@H](C)O)C(C)C)[C@@H](C)O, also called compound 8) | 0.082 nM | 1.1 | 0.087 nM | 0.072 nM

The next lines start with the values.

hAmylin-R funct. EC50 [1] | Ratio hCT/hAmylin funct. (hCTR EC50 against hAmylin-R EC50) [2] | hCTR funct. EC50 [2] | IC50 [3] | Binder
0.146 nM | 1.6 | 0.238 nM | 0.196 nM | {C20 diacid-γGlu-γGlu}-KCNTATCATQRLAEFLRHSSPNFGAIPSSTNVGSNTP-NH2 (disulfide 2-7; SMILES CC[C@H](C)[C@H](NC(=O)[C@H](C)NC(=O)CNC(=O)[C@H](Cc1ccccc1)NC(=O)[C@H](CC(N)=O)NC(=O)[C@@H]1CCCN1C(=O)[C@H](CO)NC(=O)[C@H](CO)NC(=O)[C@H](Cc1c[nH]cn1)NC(=O)[C@H](CCCNC(=N)N)NC(=O)[C@H](CC(C)C)NC(=O)[C@H](Cc1ccccc1)NC(=O)[C@H](CCC(=O)O)NC(=O)[C@H](C)NC(=O)[C@H](CC(C)C)NC(=O)[C@H](CCCNC(=N)N)NC(=O)[C@H](CCC(N)=O)NC(=O)[C@@H](NC(=O)[C@H](C)NC(=O)[C@@H]1CSSC[C@H](NC(=O)[C@H](CCCCN)NC(=O)CC[C@H](NC(=O)CC[C@H](NC(=O)CCCCCCCCCCCCCCCCCCC(=O)O)C(=O)O)C(=O)O)C(=O)N[C@@H](CC(N)=O)C(=O)N[C@@H]([C@@H](C)O)C(=O)N[C@@H](C)C(=O)N[C@@H]([C@@H](C)O)C(=O)N1)[C@@H](C)O)C(=O)N1CCC[C@H]1C(=O)N[C@@H](CO)C(=O)N[C@@H](CO)C(=O)N[C@H](C(=O)N[C@@H](CC(N)=O)C(=O)N[C@H](C(=O)NCC(=O)N[C@@H](CO)C(=O)N[C@@H](CC(N)=O)C(=O)N[C@H](C(=O)N1CCC[C@H]1C(N)=O)[C@@H](C)O)C(C)C)[C@@H](C)O, also called compound 14)
0.213 nM | 2.2 | 0.47 nM | 0.264 nM | K([γGlu-γGlu-C20 diacid])CNTATCATQRLAEFLRHSSPNFGAIPSSTNVGSNTP-NH2 (disulfide 2-7; N-terminus assumed; SMILES CC[C@H](C)[C@H](NC(=O)[C@H](C)NC(=O)CNC(=O)[C@H](Cc1ccccc1)NC(=O)[C@H](CC(N)=O)NC(=O)[C@@H]1CCCN1C(=O)[C@H](CO)NC(=O)[C@H](CO)NC(=O)[C@H](Cc1c[nH]cn1)NC(=O)[C@H](CCCNC(=N)N)NC(=O)[C@H](CC(C)C)NC(=O)[C@H](Cc1ccccc1)NC(=O)[C@H](CCC(=O)O)NC(=O)[C@H](C)NC(=O)[C@H](CC(C)C)NC(=O)[C@H](CCCNC(=N)N)NC(=O)[C@H](CCC(N)=O)NC(=O)[C@@H](NC(=O)[C@H](C)NC(=O)[C@@H]1CSSC[C@H](NC(=O)[C@@H](N)CCCCNC(=O)CC[C@H](NC(=O)CC[C@H](NC(=O)CCCCCCCCCCCCCCCCCCC(=O)O)C(=O)O)C(=O)O)C(=O)N[C@@H](CC(N)=O)C(=O)N[C@@H]([C@@H](C)O)C(=O)N[C@@H](C)C(=O)N[C@@H]([C@@H](C)O)C(=O)N1)[C@@H](C)O)C(=O)N1CCC[C@H]1C(=O)N[C@@H](CO)C(=O)N[C@@H](CO)C(=O)N[C@H](C(=O)N[C@@H](CC(N)=O)C(=O)N[C@H](C(=O)NCC(=O)N[C@@H](CO)C(=O)N[C@@H](CC(N)=O)C(=O)N[C@H](C(=O)N1CCC[C@H]1C(N)=O)[C@@H](C)O)C(C)C)[C@@H](C)O, also called compound 13)
